Data: US20220186223, “T-LYMPHOCYTE BINDING APTAMERS” (Aummune Ltd., published 2022)

target: CD3 epsilon (CD3ε), recombinant extracellular Fc chimera (Homo sapiens, UniProt P07766 P07766:23-126); experiment: HPLC size exclusion shift, 1 hr 37 C and 4 C; settings: tags: Fc chimera, His tag; Abcam ab220590; label: Cy5 via hybridised CpG'-Cy5 complementary strand
Procedure: 1 μM of folded Cy5 labeled aptamer was mixed with 50 µL of protein to a final volume of 60 ul and incubated for 1 hr at 4° C. or 37° C. Next, to detect the Cy-labelled aptamers, samples were analyzed at 570 nm absorption via HPLC ProSEC 300S size exclusion column (Agilent).
Top five candidates (CS6, CS7, CS8, CS8c, and CS9 SEQ ID NO. 1-5) were synthesized with a 5(5′) phosphothioated CpG motif and assayed for Human CD3ε (hCD3ε) binding via the HPLC size exclusion column. In this method, the aptamers were labelled with Cy5 complementary sequence to the CpG site (Cy5-CpG′). Then, the folded-labelled candidates are incubated, each, with the CD3ε- recombinant protein or with negative control IgG1 (1 hr at 37° C. and 4° C.) and analyzed by HPLC ProSEC 300S size exclusion column (Agilent) at 570 nm absorption. Upon protein binding, the aptamer-protein complex has a greater mass than a free aptamer and as a result, the retention time (RT) at the column is expected to be shorter. Inversely, in the case of non-binding aptamer, the RT in the presence of protein will be the same as in the absence of the protein. As a control, PolyT sequence was used.

CD3 epsilon (CD3ε), recombinant extracellular Fc chimera, sequence (P07766 23-126, change not shown, one chain of several): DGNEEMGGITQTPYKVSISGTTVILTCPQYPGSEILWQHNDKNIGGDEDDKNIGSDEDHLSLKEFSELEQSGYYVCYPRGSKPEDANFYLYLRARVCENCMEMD

Binding result, binds:
CATTTCATAGGGCTGCTTAGGATTGCGAAGGTAATGCCAG (ssDNA, synthesized with 5' CpG motif having 5 PS linkages (extension not in ref)) [CS7]
TTGTAAGGACTGCTTAGGATTGCGAAAACAATATTCGTAT (ssDNA, synthesized with 5' CpG motif having 5 PS linkages (extension not in ref)) [CS9]
CTTTTAGGTCTGCTTAGGATTGCGAAAAAAG (ssDNA, synthesized with 5' CpG motif having 5 PS linkages (extension not in ref)) [CS8c (CS8cut)]
CCCTTACCCCTTTTAGGTCTGCTTAGGATTGCGAAAAAAG (ssDNA, synthesized with 5' CpG motif having 5 PS linkages (extension not in ref)) [CS8]
